Results on 14 molecules are retold here after US20150087577A1 (POLYPHOR, published 2015).

B1: Example 69 (peptide)
peptide: cyclo(YRRCRG[dP]RR[2Nal]CYQK[dP]P)
modifications: disulfide 4-11
SMILES: N=C(N)NCCC[C@@H]1NC(=O)[C@@H]2CSSC[C@H](NC(=O)[C@H](Cc3ccc4ccccc4c3)NC(=O)[C@H](CCCNC(=N)N)NC(=O)[C@H](CCCNC(=N)N)NC(=O)[C@H]3CCCN3C(=O)CNC1=O)C(=O)N[C@@H](Cc1ccc(O)cc1)C(=O)N[C@@H](CCC(N)=O)C(=O)N[C@@H](CCCCN)C(=O)N1CCC[C@@H]1C(=O)N1CCC[C@H]1C(=O)N[C@@H](Cc1ccc(O)cc1)C(=O)N[C@@H](CCCNC(=N)N)C(=O)N[C@@H](CCCNC(=N)N)C(=O)N2
B2: Example 77 (peptide)
peptide: cyclo(YR[Cit]CRG[dP]RR[2Nal]CYNK[dP]P)
modifications: disulfide 4-11
SMILES: N=C(N)NCCC[C@@H]1NC(=O)[C@@H]2CSSC[C@H](NC(=O)[C@H](Cc3ccc4ccccc4c3)NC(=O)[C@H](CCCNC(=N)N)NC(=O)[C@H](CCCNC(=N)N)NC(=O)[C@H]3CCCN3C(=O)CNC1=O)C(=O)N[C@@H](Cc1ccc(O)cc1)C(=O)N[C@@H](CC(N)=O)C(=O)N[C@@H](CCCCN)C(=O)N1CCC[C@@H]1C(=O)N1CCC[C@H]1C(=O)N[C@@H](Cc1ccc(O)cc1)C(=O)N[C@@H](CCCNC(=N)N)C(=O)N[C@@H](CCCNC(N)=O)C(=O)N2
B3: Example 76 (peptide)
peptide: cyclo(YR[Cit]CRG[dP][Phe(4-F)]R[2Nal]CYQK[dP]P)
modifications: disulfide 4-11
SMILES: N=C(N)NCCC[C@@H]1NC(=O)[C@@H]2CSSC[C@H](NC(=O)[C@H](Cc3ccc4ccccc4c3)NC(=O)[C@H](CCCNC(=N)N)NC(=O)[C@H](Cc3ccc(F)cc3)NC(=O)[C@H]3CCCN3C(=O)CNC1=O)C(=O)N[C@@H](Cc1ccc(O)cc1)C(=O)N[C@@H](CCC(N)=O)C(=O)N[C@@H](CCCCN)C(=O)N1CCC[C@@H]1C(=O)N1CCC[C@H]1C(=O)N[C@@H](Cc1ccc(O)cc1)C(=O)N[C@@H](CCCNC(=N)N)C(=O)N[C@@H](CCCNC(N)=O)C(=O)N2
B4: Example 72 (peptide)
peptide: cyclo(YRYCRG[dP]RR[2Nal]CYQK[dP]P)
modifications: disulfide 4-11
SMILES: N=C(N)NCCC[C@@H]1NC(=O)[C@@H]2CSSC[C@H](NC(=O)[C@H](Cc3ccc4ccccc4c3)NC(=O)[C@H](CCCNC(=N)N)NC(=O)[C@H](CCCNC(=N)N)NC(=O)[C@H]3CCCN3C(=O)CNC1=O)C(=O)N[C@@H](Cc1ccc(O)cc1)C(=O)N[C@@H](CCC(N)=O)C(=O)N[C@@H](CCCCN)C(=O)N1CCC[C@@H]1C(=O)N1CCC[C@H]1C(=O)N[C@@H](Cc1ccc(O)cc1)C(=O)N[C@@H](CCCNC(=N)N)C(=O)N[C@@H](Cc1ccc(O)cc1)C(=O)N2
B5: Example 78 (peptide)
peptide: cyclo(YR[Cit]CRG[dP]RR[2Nal]CYDK[dP]P)
modifications: disulfide 4-11
SMILES: N=C(N)NCCC[C@@H]1NC(=O)[C@@H]2CSSC[C@H](NC(=O)[C@H](Cc3ccc4ccccc4c3)NC(=O)[C@H](CCCNC(=N)N)NC(=O)[C@H](CCCNC(=N)N)NC(=O)[C@H]3CCCN3C(=O)CNC1=O)C(=O)N[C@@H](Cc1ccc(O)cc1)C(=O)N[C@@H](CC(=O)O)C(=O)N[C@@H](CCCCN)C(=O)N1CCC[C@@H]1C(=O)N1CCC[C@H]1C(=O)N[C@@H](Cc1ccc(O)cc1)C(=O)N[C@@H](CCCNC(=N)N)C(=O)N[C@@H](CCCNC(N)=O)C(=O)N2
B6: Example 68 (peptide)
peptide: cyclo(ER[Cit]CRG[dP]RR[2Nal]CYQK[dP]P)
modifications: disulfide 4-11
SMILES: N=C(N)NCCC[C@@H]1NC(=O)[C@@H]2CSSC[C@H](NC(=O)[C@H](Cc3ccc4ccccc4c3)NC(=O)[C@H](CCCNC(=N)N)NC(=O)[C@H](CCCNC(=N)N)NC(=O)[C@H]3CCCN3C(=O)CNC1=O)C(=O)N[C@@H](Cc1ccc(O)cc1)C(=O)N[C@@H](CCC(N)=O)C(=O)N[C@@H](CCCCN)C(=O)N1CCC[C@@H]1C(=O)N1CCC[C@H]1C(=O)N[C@@H](CCC(=O)O)C(=O)N[C@@H](CCCNC(=N)N)C(=O)N[C@@H](CCCNC(N)=O)C(=O)N2
B7: Example 74 (peptide)
peptide: cyclo(YRPCRG[dP]RR[2Nal]CYQK[dP]P)
modifications: disulfide 4-11
SMILES: N=C(N)NCCC[C@@H]1NC(=O)[C@@H]2CSSC[C@H](NC(=O)[C@H](Cc3ccc4ccccc4c3)NC(=O)[C@H](CCCNC(=N)N)NC(=O)[C@H](CCCNC(=N)N)NC(=O)[C@H]3CCCN3C(=O)CNC1=O)C(=O)N[C@@H](Cc1ccc(O)cc1)C(=O)N[C@@H](CCC(N)=O)C(=O)N[C@@H](CCCCN)C(=O)N1CCC[C@@H]1C(=O)N1CCC[C@H]1C(=O)N[C@@H](Cc1ccc(O)cc1)C(=O)N[C@@H](CCCNC(=N)N)C(=O)N1CCC[C@H]1C(=O)N2
B8: Example 80 (peptide)
peptide: cyclo(YR[Cit]CRG[dP]RR[2Nal]CYAK[dP]P)
modifications: disulfide 4-11
SMILES: C[C@@H]1NC(=O)[C@H](Cc2ccc(O)cc2)NC(=O)[C@@H]2CSSC[C@H](NC(=O)[C@H](CCCNC(N)=O)NC(=O)[C@H](CCCNC(=N)N)NC(=O)[C@H](Cc3ccc(O)cc3)NC(=O)[C@@H]3CCCN3C(=O)[C@H]3CCCN3C(=O)[C@H](CCCCN)NC1=O)C(=O)N[C@@H](CCCNC(=N)N)C(=O)NCC(=O)N1CCC[C@@H]1C(=O)N[C@@H](CCCNC(=N)N)C(=O)N[C@@H](CCCNC(=N)N)C(=O)N[C@@H](Cc1ccc3ccccc3c1)C(=O)N2
B9: Example 73 (peptide)
peptide: cyclo(YRWCRG[dP]RR[2Nal]CYQK[dP]P)
modifications: disulfide 4-11
SMILES: N=C(N)NCCC[C@@H]1NC(=O)[C@@H]2CSSC[C@H](NC(=O)[C@H](Cc3ccc4ccccc4c3)NC(=O)[C@H](CCCNC(=N)N)NC(=O)[C@H](CCCNC(=N)N)NC(=O)[C@H]3CCCN3C(=O)CNC1=O)C(=O)N[C@@H](Cc1ccc(O)cc1)C(=O)N[C@@H](CCC(N)=O)C(=O)N[C@@H](CCCCN)C(=O)N1CCC[C@@H]1C(=O)N1CCC[C@H]1C(=O)N[C@@H](Cc1ccc(O)cc1)C(=O)N[C@@H](CCCNC(=N)N)C(=O)N[C@@H](Cc1c[nH]c3ccccc13)C(=O)N2
B10: Example 75 (peptide)
peptide: cyclo(YRECRG[dP]RR[2Nal]CYQK[dP]P)
modifications: disulfide 4-11
SMILES: N=C(N)NCCC[C@@H]1NC(=O)[C@@H]2CSSC[C@H](NC(=O)[C@H](Cc3ccc4ccccc4c3)NC(=O)[C@H](CCCNC(=N)N)NC(=O)[C@H](CCCNC(=N)N)NC(=O)[C@H]3CCCN3C(=O)CNC1=O)C(=O)N[C@@H](Cc1ccc(O)cc1)C(=O)N[C@@H](CCC(N)=O)C(=O)N[C@@H](CCCCN)C(=O)N1CCC[C@@H]1C(=O)N1CCC[C@H]1C(=O)N[C@@H](Cc1ccc(O)cc1)C(=O)N[C@@H](CCCNC(=N)N)C(=O)N[C@@H](CCC(=O)O)C(=O)N2
B11: Example 4 (peptide)
peptide: cyclo(YR[Cit]VRRR[2Nal]FY[Cit]K[dP]P)
SMILES: CC(C)[C@@H]1NC(=O)[C@H](CCCNC(N)=O)NC(=O)[C@H](CCCNC(=N)N)NC(=O)[C@H](Cc2ccc(O)cc2)NC(=O)[C@@H]2CCCN2C(=O)[C@H]2CCCN2C(=O)[C@H](CCCCN)NC(=O)[C@H](CCCNC(N)=O)NC(=O)[C@H](Cc2ccc(O)cc2)NC(=O)[C@H](Cc2ccccc2)NC(=O)[C@H](Cc2ccc3ccccc3c2)NC(=O)[C@H](CCCNC(=N)N)NC(=O)[C@H](CCCNC(=N)N)NC(=O)[C@H](CCCNC(=N)N)NC1=O
B12: Example 79 (peptide)
peptide: cyclo(YR[Cit]CRG[dP]RR[2Nal]CYKK[dP]P)
modifications: disulfide 4-11
SMILES: N=C(N)NCCC[C@@H]1NC(=O)[C@@H]2CSSC[C@H](NC(=O)[C@H](Cc3ccc4ccccc4c3)NC(=O)[C@H](CCCNC(=N)N)NC(=O)[C@H](CCCNC(=N)N)NC(=O)[C@H]3CCCN3C(=O)CNC1=O)C(=O)N[C@@H](Cc1ccc(O)cc1)C(=O)N[C@@H](CCCCN)C(=O)N[C@@H](CCCCN)C(=O)N1CCC[C@@H]1C(=O)N1CCC[C@H]1C(=O)N[C@@H](Cc1ccc(O)cc1)C(=O)N[C@@H](CCCNC(=N)N)C(=O)N[C@@H](CCCNC(N)=O)C(=O)N2
B13: Example 70 (peptide)
peptide: cyclo(YRHCRG[dP]RR[2Nal]CYQK[dP]P)
modifications: disulfide 4-11
SMILES: N=C(N)NCCC[C@@H]1NC(=O)[C@@H]2CSSC[C@H](NC(=O)[C@H](Cc3ccc4ccccc4c3)NC(=O)[C@H](CCCNC(=N)N)NC(=O)[C@H](CCCNC(=N)N)NC(=O)[C@H]3CCCN3C(=O)CNC1=O)C(=O)N[C@@H](Cc1ccc(O)cc1)C(=O)N[C@@H](CCC(N)=O)C(=O)N[C@@H](CCCCN)C(=O)N1CCC[C@@H]1C(=O)N1CCC[C@H]1C(=O)N[C@@H](Cc1ccc(O)cc1)C(=O)N[C@@H](CCCNC(=N)N)C(=O)N[C@@H](Cc1c[nH]cn1)C(=O)N2
B14: Example 71 (peptide)
peptide: cyclo(YRICRG[dP]RR[2Nal]CYQK[dP]P)
modifications: disulfide 4-11
SMILES: CC[C@H](C)[C@@H]1NC(=O)[C@H](CCCNC(=N)N)NC(=O)[C@H](Cc2ccc(O)cc2)NC(=O)[C@@H]2CCCN2C(=O)[C@H]2CCCN2C(=O)[C@H](CCCCN)NC(=O)[C@H](CCC(N)=O)NC(=O)[C@H](Cc2ccc(O)cc2)NC(=O)[C@@H]2CSSC[C@H](NC1=O)C(=O)N[C@@H](CCCNC(=N)N)C(=O)NCC(=O)N1CCC[C@@H]1C(=O)N[C@@H](CCCNC(=N)N)C(=O)N[C@@H](CCCNC(=N)N)C(=O)N[C@@H](Cc1ccc3ccccc3c1)C(=O)N2

Bridges are numbered along the chain shown (N, C = ends). [ ]: non-standard residue; d: D form. Phe(4-F) = N[C@@H](Cc1ccc(F)cc1)C(=O)O; 2Nal = N[C@@H](Cc1ccc2ccccc2c1)C(=O)O; Cit = NC(=O)NCCC[C@H](N)C(=O)O

human CXCR4, sequence (P61073 whole entry): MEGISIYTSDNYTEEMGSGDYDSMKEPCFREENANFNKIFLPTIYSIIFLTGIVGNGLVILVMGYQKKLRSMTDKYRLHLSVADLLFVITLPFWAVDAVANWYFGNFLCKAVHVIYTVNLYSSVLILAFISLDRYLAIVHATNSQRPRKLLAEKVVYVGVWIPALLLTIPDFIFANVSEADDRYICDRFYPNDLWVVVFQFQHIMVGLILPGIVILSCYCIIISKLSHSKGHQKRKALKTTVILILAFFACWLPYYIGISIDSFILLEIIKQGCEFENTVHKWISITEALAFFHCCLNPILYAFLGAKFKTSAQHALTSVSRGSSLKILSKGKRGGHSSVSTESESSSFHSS

This assay has as its target human CXCR4 (human, UniProt P61073 1-352). Kind of assay: cell-based or functional assay.
In the case of B1, the “IC50 (nM) Ca2+ assay (method 2)” value was found to be 1.8 nM.
For the molecule B2, the “IC50 (nM) Ca2+ assay (method 2)” value is 7 nM.
On to B3, for which the “IC50 (nM) Ca2+ assay (method 2)” value came to 5.6 nM.
For B4, the “IC50 (nM) Ca2+ assay (method 2)” value came to 3.9 nM.
Turning to B5, the “IC50 (nM) Ca2+ assay (method 2)” value was 11 nM.
Turning to B6, the “IC50 (nM) Ca2+ assay (method 2)” value came out at 1.1 nM.
On the same count and under the same terms, with B7 the figure was 19.5 nM.
B8: the “IC50 (nM) Ca2+ assay (method 2)” value came out at 2.9 nM.
Same read-out and setting: for B9 the value was 8.8 nM.
B10: the “IC50 (nM) Ca2+ assay (method 2)” value amounted to 3.5 nM.
Consider B11, for which the “IC50 (nM) Ca2+ assay (method 1)” value turned out to be 2540 nM.
For the molecule B12, the “IC50 (nM) Ca2+ assay (method 2)” value was determined as 2.4 nM.
In the case of B13, the “IC50 (nM) Ca2+ assay (method 2)” value came out at 19.5 nM.
For the molecule B14, the “IC50 (nM) Ca2+ assay (method 2)” value turned out to be 2.7 nM.
